Source: patent US20210355225A1 (OSE IMMUNOTHERAPEUTICS, published 2021)
Read-outs that look alike come from different tables or passages of the source.

Assays:
[1] = target: chimeric PD-1 receptor fused to Beta-gal fragment (ED) on Jurkat T cells (DiscoverX PathHunter Jurkat PD-1 … (UniProt Q15116 25-288)); experiment: cell-based or functional assay
[2] = target: T1, human PD-1 expressed on the cell surface (human, UniProt Q15116 25-288); experiment: cell-based or functional assay
[3] = target: T1, human PD-1 expressed on the cell surface; experiment: flow cytometry on CD3/CD28 stimulated human T cells (PD1+ CD3+); given as ED50
Protocol: (§1) Detection was performed with a donkey anti-human antibody coupled to peroxidase and revelation was performed by colorimetry at 450 nm using TMB substrate. […] B: Assessment of antibody binding by cytofluorometry on CD3/CD28 stimulated human PBMCs. […] Data are represented by Mean Fluorescence Intensity (MFI) staining in PD1+ positive CD3+ T cell population. C: Assessment of antibody binding by cytofluorometry on CD3/CD28 stimulated T cells. […] Data are represented by Mean Fluorescence Intensity (MFI) staining in PD1+ positive CD3+ T cell population

[4] = target: T2, Recombinant hPD1-His (Sino Biologicals, reference […]-H08H) (human, UniProt Q15116 25-167); experiment: Blitz (BLI), hPD1-His on Ni-NTA biosensor, antibody 20 µg/mL in solution (avidity)
T2 construct: Bought reagent; also called human PD1 recombinant protein; PD-1 recombinant protein; not shown: histidine tail
Protocol: The binding affinity/avidity was measured using Blitz method (Forté Bio; USA; reference C22-2 No 61010-1). […] Then, anti-PD1 antibodies were associated with 20 μg/mL for 120 seconds. The dissociation of anti-PD1 antibody was made in kinetics buffer for 120 seconds. Analysis data was made with the Blitz pro 1.2 software, which calculated association constant (ka) and dissociation constant (kd) and determined the affinity constant KD […].

[5] = target: T2, Recombinant hPD1-His (Sino Biologicals, …); experiment: ELISA, immobilized recombinant hPD1, purified antibody from HEK cells; given as ED50
Protocol: as §1

[6] = target: T3, biotinylated Human PD1 (AcroBiosystems, reference EP-101) (human, UniProt Q15116 25-167, biotinylated); experiment: competition ELISA, immobilized hPDL1 as competitor, biotinylated PD1 0.66 µg/ml mixed with antibody
T3 construct: also called Biotin-PD-1Fc; not shown: Fc part implied by the name 'Biotin-PD-1Fc'

[7] = target: T2, Recombinant hPD1-His (Sino Biologicals, …); experiment: Biacore SPR, antibody captured on anti-human Fc, hPD1-His as analyte
Protocol: The affinity measurement was performed by Biacore in PP21 platform (Inserm U1194, Université de Montpellier). Anti-human Fc antibody (GEHealthcare) was immobilized at 25 μg/ml in acetate buffer pH5.

[8] = target: T1, human PD-1 expressed on the cell surface; experiment: Flow cytometry on CD3/CD28 stimulated human PBMCs, PE-labelled mouse anti-human Fc mAb, MFI in the PD1+ CD3+ T cell population
Protocol: as §1

[9] = target: T2, Recombinant hPD1-His (Sino Biologicals, …); experiment: ELISA on immobilised recombinant hPD1, DO 450 nm
[10] = target: T2, Recombinant hPD1-His (Sino Biologicals, …); experiment: ELISA on immobilised recombinant hPD1, DO 450 nm; remark: listed apart in the source

T3 sequence (Q15116 25-167): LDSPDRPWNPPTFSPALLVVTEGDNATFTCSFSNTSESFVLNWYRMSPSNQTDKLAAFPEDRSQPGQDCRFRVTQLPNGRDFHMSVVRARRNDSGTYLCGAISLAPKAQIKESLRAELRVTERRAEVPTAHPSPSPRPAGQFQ
T1 sequence (Q15116 25-288): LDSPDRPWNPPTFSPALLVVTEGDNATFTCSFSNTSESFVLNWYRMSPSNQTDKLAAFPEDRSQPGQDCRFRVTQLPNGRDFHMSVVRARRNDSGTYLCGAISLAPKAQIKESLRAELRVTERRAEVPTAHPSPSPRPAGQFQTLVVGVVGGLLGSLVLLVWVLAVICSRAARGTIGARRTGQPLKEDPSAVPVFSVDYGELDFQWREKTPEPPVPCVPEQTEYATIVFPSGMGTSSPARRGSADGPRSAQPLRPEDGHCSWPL
Sequence of chimeric PD-1 receptor fused to Beta-gal fragment (ED) on Jurkat T cells (DiscoverX PathHunter Jurkat PD-1 … (Q15116 25-288, change not shown): as the sequence (Q15116 25-288) above

Binder | IC50 of PD-1/pSHP-1 signaling, DiscoverX PathHunter Jurkat PD-1 (SHP1) assay, chemiluminescence [1] [ng/mL] | ED50 of NFAT luciferase luminescence, Promega PD-1/PD-L1 bioassay [2] [µg/mL] | EC50 [3] [nM] | Kd [4] [nM] | koff [4] [s⁻¹] | kon [4] [M⁻¹ s⁻¹] | EC50 [5] [µg/mL] | IC50 [6] [µg/mL] | Kd [7] [nM] | koff [7] [s⁻¹] | kon [7] [M⁻¹ s⁻¹] | EC50 (read off the curve) [8] [µg/mL] | EC50 (read off the curve) [9] [µg/mL] | EC50 (read off the curve) [10] [µg/mL]
HCLD (antibody, human IgG4 S228P, kappa, V domains shown, also called humanized anti-PD1 variant HC heavy chain + LD light chain) VH: QIQLVQSGSELKKPGASVKVSCKASGYTFTHYAMNWVRQAPGQGLEWMGWINTNTGEPTYAQGFTGRFVFSLDTSVSTAYLQISSLKAEDTAVYYCAREREPGMDSWGQGTLVTVSS VL: DVVMTQSPLSLPVTLGQPASISCRSSQSLVHANTNTYLEWYQQRPGQSPRLLIYKVSNRFSGVPDRFSGSGSGTDFTLKISRVEAEDVGVYYCFQGTHVPNTFGQGTKLEIKR | 12.7 | 0.41 | 0.278 | 1.34 | 0.000429 | 319000 | 0.0127 | 0.196 |  |  |  |  |  | 
HJLD (antibody, human IgG4 S228P, kappa, V domains shown, also called humanized anti-PD1 variant HJ heavy chain + LD light chain) VH: QIQLVQSGSELKKPGASVKVSCKASGYTFTHYAMNWVRQAPGQGLEWMGWINTNTGEPTYAQGFTGRFVFSLDTSVSTAYLQISSLKAEDTAVYYCAREREPGMDYWGQGTLVTVSS VL: DVVMTQSPLSLPVTLGQPASISCRSSQSLVHANTNTYLEWYQQRPGQSPRLLIYKVSNRFSGVPDRFSGSGSGTDFTLKISRVEAEDVGVYYCFQGTHVPNTFGQGTKLEIKR | 13.4 | 0.9 | 0.241 | 1.05 | 0.000432 | 410000 | 0.0134 | 0.194 |  |  |  |  |  | 
HKLD (antibody, human IgG4 S228P, kappa, V domains shown, also called humanized anti-PD1 variant HK heavy chain + LD light chain; humanized anti PD-1 (HKLD variant)) VH: QIQLVQSGSELKKPGASVKVSCKASGYTFTHYAMNWVRQAPGQGLEWMGWINTNTGEPTYAQGFTGRFVFSLDTSVSTAYLQISSLKAEDTAVYYCAREREPGMDNWGQGTLVTVSS VL: DVVMTQSPLSLPVTLGQPASISCRSSQSLVHANTNTYLEWYQQRPGQSPRLLIYKVSNRFSGVPDRFSGSGSGTDFTLKISRVEAEDVGVYYCFQGTHVPNTFGQGTKLEIKR | 11.4 | 0.69 | 0.187 | 0.75 | 0.000262 | 351000 | 0.0114 | 0.205 | 4.1 | ~0.00133 | 324000 |  |  | 
HILD (antibody, human IgG4 S228P, kappa, V domains shown, also called humanized anti-PD1 variant HI heavy chain + LD light chain) VH: QIQLVQSGSELKKPGASVKVSCKASGYTFTHYAMNWVRQAPGQGLEWMGWINTNTGEPTYAQGFTGRFVFSLDTSVSTAYLQISSLKAEDTAVYYCAREREPGMDAWGQGTLVTVSS VL: DVVMTQSPLSLPVTLGQPASISCRSSQSLVHANTNTYLEWYQQRPGQSPRLLIYKVSNRFSGVPDRFSGSGSGTDFTLKISRVEAEDVGVYYCFQGTHVPNTFGQGTKLEIKR | 11.6 | 0.4 | 0.118 | 0.93 | 0.000427 | 458000 | 0.0115 | 0.175 |  |  |  |  |  | 
HELC (antibody, human IgG4 S228P, kappa, V domains shown, also called humanized anti-PD1 variant HE heavy chain + LC light chain) VH: QIQLVQSGSELKKPGASVKVSCKASGYTFTHYAMNWVRQAPGQGLEWMGWINTNTGEPTYAQGFTGRFVFSLDTSVSTAYLQISSLKAEDTAVYYCAREREPGMDTWGQGTLVTVSS VL: DVVMTQSPLSLPVTLGQPASISCRSSQSLVHANGNTYLEWYQQRPGQSPRLLIYKVSNRFSGVPDRFSGSGSGTDFTLKISRVEAEDVGVYYCFQGTHVPNTFGQGTKLEIKR |  |  |  |  |  |  |  |  |  |  |  | ~0.3 |  | 
HELD (antibody, human IgG4 S228P, kappa, V domains shown, also called humanized anti-PD1 variant HE heavy chain + LD light chain; HELD(V94)) VH: QIQLVQSGSELKKPGASVKVSCKASGYTFTHYAMNWVRQAPGQGLEWMGWINTNTGEPTYAQGFTGRFVFSLDTSVSTAYLQISSLKAEDTAVYYCAREREPGMDTWGQGTLVTVSS VL: DVVMTQSPLSLPVTLGQPASISCRSSQSLVHANTNTYLEWYQQRPGQSPRLLIYKVSNRFSGVPDRFSGSGSGTDFTLKISRVEAEDVGVYYCFQGTHVPNTFGQGTKLEIKR | 19.2 | 0.46 | 0.402 | 1.14 | 0.000507 | 443000 | 0.0192 | 0.196 |  |  |  | ~0.3 | ~0.009 | ~0.01
HLLD (antibody, human IgG4 S228P, kappa, V domains shown, also called humanized anti-PD1 variant HL heavy chain + LD light chain) VH: QIQLVQSGSELKKPGASVKVSCKASGYTFTHYAMNWVRQAPGQGLEWMGWINTNTGEPTYAQGFTGRFVFSLDTSVSTAYLQISSLKAEDTAVYYCAREREPGMDEWGQGTLVTVSS VL: DVVMTQSPLSLPVTLGQPASISCRSSQSLVHANTNTYLEWYQQRPGQSPRLLIYKVSNRFSGVPDRFSGSGSGTDFTLKISRVEAEDVGVYYCFQGTHVPNTFGQGTKLEIKR | 16.6 | 0.89 | 0.223 | 1.25 | 0.000554 | 441000 | 0.0166 | 0.156 |  |  |  |  |  | 
HGLD (antibody, human IgG4 S228P, kappa, V domains shown, also called humanized anti-PD1 variant HG heavy chain + LD light chain) VH: QIQLVQSGSELKKPGASVKVSCKASGYTFTHYAMNWVRQAPGQGLEWMGWINTNTGEPTYAQGFTGRFVFSLDTSVSTAYLQISSLKAEDTAVYYCAREREPGMESWGQGTLVTVSS VL: DVVMTQSPLSLPVTLGQPASISCRSSQSLVHANTNTYLEWYQQRPGQSPRLLIYKVSNRFSGVPDRFSGSGSGTDFTLKISRVEAEDVGVYYCFQGTHVPNTFGQGTKLEIKR | 14.8 | 1.16 | 1.54 | 1.28 | 0.000352 | 274000 | 0.0147 | 0.178 |  |  |  |  |  | 
HHLD (antibody, human IgG4 S228P, kappa, V domains shown, also called humanized anti-PD1 variant HH heavy chain + LD light chain) VH: QIQLVQSGSELKKPGASVKVSCKASGYTFTHYAMNWVRQAPGQGLEWMGWINTNTGEPTYAQGFTGRFVFSLDTSVSTAYLQISSLKAEDTAVYYCAREREPGMDHWGQGTLVTVSS VL: DVVMTQSPLSLPVTLGQPASISCRSSQSLVHANTNTYLEWYQQRPGQSPRLLIYKVSNRFSGVPDRFSGSGSGTDFTLKISRVEAEDVGVYYCFQGTHVPNTFGQGTKLEIKR | 16.9 | 0.54 | 0.133 | 0.84 | 0.000343 | 405000 | 0.0164 | 0.201 |  |  |  |  |  | 
